Target: T1, CAPRIN-1 protein (Homo sapiens, UniProt Q14444)
T1 construct: made in house
T1 sequence (Q14444 1-709): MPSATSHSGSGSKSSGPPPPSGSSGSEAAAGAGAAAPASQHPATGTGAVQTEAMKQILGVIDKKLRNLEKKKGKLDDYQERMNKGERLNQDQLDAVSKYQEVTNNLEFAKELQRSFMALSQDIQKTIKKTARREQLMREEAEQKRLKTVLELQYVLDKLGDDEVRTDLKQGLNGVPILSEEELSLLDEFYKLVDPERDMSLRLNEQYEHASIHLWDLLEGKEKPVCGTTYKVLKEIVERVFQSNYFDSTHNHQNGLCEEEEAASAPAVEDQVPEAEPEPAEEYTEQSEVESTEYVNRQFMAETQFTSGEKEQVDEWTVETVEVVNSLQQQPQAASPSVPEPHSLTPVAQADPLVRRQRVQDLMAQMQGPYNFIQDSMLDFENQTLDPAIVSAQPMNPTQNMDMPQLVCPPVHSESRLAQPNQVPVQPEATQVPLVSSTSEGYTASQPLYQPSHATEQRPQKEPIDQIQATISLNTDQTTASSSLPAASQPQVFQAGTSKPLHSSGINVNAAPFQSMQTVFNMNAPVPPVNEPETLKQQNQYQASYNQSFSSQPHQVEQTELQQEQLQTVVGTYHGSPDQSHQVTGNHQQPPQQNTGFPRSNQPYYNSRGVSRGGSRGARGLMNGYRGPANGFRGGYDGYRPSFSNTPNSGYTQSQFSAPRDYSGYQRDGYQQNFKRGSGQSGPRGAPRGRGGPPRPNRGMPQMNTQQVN
Experiment: ELISA using CAPRIN-1 protein immobilized on a plate
Format: binding
Method: One hundred (100) μg of a human CAPRIN-1 recombinant protein produced according to Example 3 of WO2010/016526 was mixed with a MPL+TDM adjuvant (Sigma) in an amount equivalent to that of the recombinant protein. The mixture was used as an antigen solution per mouse. The antigen solution was administered intraperitoneally to 6-week-old Balb/c mice (Japan SLC Inc.) and then further administered 3 times […] every week for completion of immunization. A spleen was removed on day 3 after the final immunization and then ground between two sterilized glass slides. Spleen cells were obtained by washing with PBS (−) (Nissui Pharmatheutical), centrifuging at 1500 rpm for 10 minutes, and removing supernatant, therein these were repeated 3 times. The obtained spleen cells were mixed with mouse myeloma cell SP2/0 (purchased from ATCC) at a ratio of 10:1. The PEG solution prepared by mixing 200 μl of RPMI1640 medium containing 10% FBS heated at 37° C. and 800 μl of PEG1500 (Boehringer) was added to the cells. The solution was incubated for 5 minutes for cell fusion. Centrifugation was performed at 1700 rpm for 5 minutes to remove supernatants. […] Absorbance at 450 nm and absorbance at 595 nm were measured using an absorption spectrometer. As a result, a plurality of hybridomas producing antibodies with high absorbances were selected. […]

- specific reactivity to CAPRIN-1 protein: exhibiting reactivity
B1: monoclonal antibody against CAPRIN-1 described in WO2013/125630: mouse monoclonal antibody with heavy-chain variable region SEQ ID NO: 114 and light-chain variable region SEQ ID NO: 115 (antibody, listed as Mus musculus, V domains shown)
VH: GPELVKPGASVKMSCKASGYTFTSYVMHWVKQKPGQGLEWIGYINPYNDGTKYNEKFKGKATLTSDKSSSTAYMELSSLTSEDSAVYYCARRYYYGSSGGYFDVWAQDHVRT
VL: DVQITQSPSYLAASPGETITINCRASKSISKYLAWYQEKPGKTNKLLIYSGSTLQSGIPSRFSGSGSGTDFTLTISSLEPEDFAMYYCQQHNEYPYTFGGGTKLEIKR

Source: patent US12685772B2, “Methods for treating CAPRIN-1 expressing cancers” (TORAY INDUSTRIES, INC., priority 2020, dated 2026)
